Data reported in the supplement of paper PMC10567573.

B1: FAM116A (parent)
chain: TVHEVDIFRCFCPVFLHSQMLWEL

Variants of: B1
Assay: protein stability index of a GFP-peptide fusion (GPS, HEK-293T) (PSI 1-6); higher = more stable
Settings: c terminus: a fixed tail appended
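Also: lentivirally expressed fusions sorted by FACS into six bins by GFP to DsRed ratio, PSI derived from sequencing read proportions per bin multiplied by bin number.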

| Variant | protein stability index |
| --- | --- |
| TVHEVDIFRCFCKVFLHSQMLWEL [P13K] | 2.83 |
| TVHEVDIFRCFCIVFLHSQMLWEL [P13I] | 3.13 |
| TVHEVDIFRCFCAVFLHSQMLWEL [P13A] | 2.36 |
| TVHEVDIFRCFCNVFLHSQMLWEL [P13N] | 1.5 |
| TVHEVDIFRCFCLVFLHSQMLWEL [P13L] | 1 |
| TVHEVDIFRCFCYVFLHSQMLWEL [P13Y] | 1.72 |
| TVHEVDIFQCFCPVFLHSQMLWEL [R9Q] | 3.69 |
| TVHEVDIFTCFCPVFLHSQMLWEL [R9T] | 1.99 |
| TVHEVDIFSCFCPVFLHSQMLWEL [R9S] | 3.12 |
| TVHEVDIFRCFCPVFLHSQMLTEL [W22T] | 2.11 |
| TVHEVDIFRCFCPVFLHSQMLREL [W22R] | 3.65 |
| TVHEVDIFRCFCPVFLHSQMLHEL [W22H] | 1.52 |
| TVHEVDIFRCFCPVFLHSQMLKEL [W22K] | 1.13 |
| TVHEVDIFRCFCPVFLHSQMLMEL [W22M] | 3.69 |
| TVHEVDIFRCFCPVFLHSQMLFEL [W22F] | 2.22 |
| TVHEVDIFRCFCPVFLHSQMLGEL [W22G] | 3.08 |
| TVHEVDIFRCFCPVFLHLQMLWEL [S18L] | 2.89 |
| TVHEVDIFRCFCPVFLHQQMLWEL [S18Q] | 2.17 |
| TVHEVDIFRCFCPVFLHYQMLWEL [S18Y] | 4.23 |
| TVHEVDIFRCFCPVFLHWQMLWEL [S18W] | 2.85 |
| TVHEVDIFRCFCPVFLHGQMLWEL [S18G] | 2.83 |
| TVHEVDIFRCFCPVFLHFQMLWEL [S18F] | 2.77 |
| TVHEVDIFRCFCPVFLHEQMLWEL [S18E] | 1.56 |
| TVHEVDIFRCFCPVFLHDQMLWEL [S18D] | 2.15 |

| Variant | protein stability index |
| --- | --- |
| TVHEVDIFRCFCPVFLHNQMLWEL [S18N] | 2.99 |
| TVHEVDIFRCFCPVFLHTQMLWEL [S18T] | 3.1 |
| TVHEVDIFRCFCPVFLPSQMLWEL [H17P] | 2.86 |
| TVHEVDIFRCFCPVFLRSQMLWEL [H17R] | 2.65 |
| TVHEVDIFRCFCPVFLSSQMLWEL [H17S] | 3.21 |
| TVHEVDIFRCFCPVFLMSQMLWEL [H17M] | 3.23 |
| TVHEVDIFRCFCPVFLHSQMTWEL [L21T] | 3.12 |
| TVHEVDIFRCFCPVFLHSQMRWEL [L21R] | 1.77 |
| TVHEVDIFRCFCPVFLHSQMIWEL [L21I] | 3.87 |
| TVHEVDIFRCFCPVFLHSQMQWEL [L21Q] | 3.05 |
| TVHEVDIFRCFCPVFLHSQMCWEL [L21C] | 3.04 |
| TVHEVDIFRCFFPVFLHSQMLWEL [C12F] | 2.77 |
| TVHEVDIFRCFEPVFLHSQMLWEL [C12E] | 1.52 |
| TVHEVDIFRCFMPVFLHSQMLWEL [C12M] | 2.97 |
| TVHEVDIFRCFKPVFLHSQMLWEL [C12K] | 1.79 |
| TVHEVDIFRCFIPVFLHSQMLWEL [C12I] | 2.54 |
| TVHEVDIFRCFRPVFLHSQMLWEL [C12R] | 3.5 |
| TVHEVDIFRCFCPVKLHSQMLWEL [F15K] | 2.7 |
| TVHEVDIFRCFCPVVLHSQMLWEL [F15V] | 1.94 |
| TVHEVDIFRCFCPVDLHSQMLWEL [F15D] | 1.44 |
| TVHEVDIFRCFCPVYLHSQMLWEL [F15Y] | 3.31 |
| TVHEVDIFRCFCPVHLHSQMLWEL [F15H] | 2.83 |
| TVHEVDIFRCFCPVRLHSQMLWEL [F15R] | 4.41 |
| TVHEVDIFRCFCPVILHSQMLWEL [F15I] | 3.86 |

| Variant | protein stability index |
| --- | --- |
| TVHEVDIFRCFCPVCLHSQMLWEL [F15C] | 1.76 |
| TVHEVDIFRCFCPVFLHSIMLWEL [Q19I] | 1.82 |
| TVHEVDIFRCFCPVFLHSPMLWEL [Q19P] | 4.4 |
| TVHEVDIFRCFCPVFLHSSMLWEL [Q19S] | 2.74 |
| TVHEVDIFRCFCPVFLHSTMLWEL [Q19T] | 1.66 |
| TVHEVDIFRCFCPVFLHSWMLWEL [Q19W] | 2.73 |
| TVHEVDIFRCFCPVFLHSCMLWEL [Q19C] | 2.22 |
| TVHEVDIFRCFCPVFLHSAMLWEL [Q19A] | 3.23 |
| TVHEVDIFRCFCPVFLHSQMLWEQ [L24Q] | 1.47 |
| TVHEVDIFRCFCPVFLHSQMLWEC [L24C] | 4.01 |
| TVHEVDIFRCFCPVFLHSQMLWEP [L24P] | 1.69 |
| TVHEVDIFRCFCPVFLHSQMLWEG [L24G] | 3.33 |
| TVHEVDIFRCFCPVFLHSQMLWEW [L24W] | 1.83 |
| TVHEVDIFRCFCPVFLHSQMLWEY [L24Y] | 3.09 |
| TVHEVDIFRCFCPVFLHSQMLWES [L24S] | 2.18 |
| TVHEVDIFRCFCPVFLHSQPLWEL [M20P] | 1.4 |
| TVHEVDIFRCFCPVFLHSQFLWEL [M20F] | 2.05 |
| TVHEVDIFRCFCPVFLHSQVLWEL [M20V] | 2.62 |
| TVHEVDIFRCFCPVFLHSQKLWEL [M20K] | 1.68 |
| TVHEVDIFRCFCPVFLHSQILWEL [M20I] | 3.16 |
| TVHEVDIFRCFCPVFLHSQQLWEL [M20Q] | 2.97 |
| TVHEVDIFRCFCPVFLHSQLLWEL [M20L] | 3.06 |
| TVHEVDIFRCFCPVFLHSQNLWEL [M20N] | 3.79 |
| TVHEVDIFRCFCPVFLHSQYLWEL [M20Y] | 3.21 |

| Variant | protein stability index |
| --- | --- |
| TVHEVDIFRCFCPQFLHSQMLWEL [V14Q] | 3.31 |
| TVHEVDIFRCFCPKFLHSQMLWEL [V14K] | 2.41 |
| TVHEVDIFRCFCPRFLHSQMLWEL [V14R] | 2.5 |
| TVHEVDIFRCFCPLFLHSQMLWEL [V14L] | 4.01 |
| TVHEVDIFRCFCPGFLHSQMLWEL [V14G] | 3.26 |
| TVHEVDIFRCFCPAFLHSQMLWEL [V14A] | 2.13 |
| TVHEVDIFRCFCPFFLHSQMLWEL [V14F] | 2.97 |
| TVHEVDIFRCFCPYFLHSQMLWEL [V14Y] | 1.89 |
| TVHEVDIFRTFCPVFLHSQMLWEL [C10T] | 1.93 |
| TVHEVDIFRKFCPVFLHSQMLWEL [C10K] | 2.63 |
| TVHEVDIFRRFCPVFLHSQMLWEL [C10R] | 2 |
| TVHEVDIFRSFCPVFLHSQMLWEL [C10S] | 2.89 |
| TVHEVDIFRVFCPVFLHSQMLWEL [C10V] | 2.69 |
| TVHEVDIFRPFCPVFLHSQMLWEL [C10P] | 4.46 |
| TVHEVDIFRHFCPVFLHSQMLWEL [C10H] | 4.15 |
| TVHEVDIFRMFCPVFLHSQMLWEL [C10M] | 3.4 |
| TVHEVDIFRCFCPVFLHSQMLWKL [E23K] | 3.53 |
| TVHEVDIFRCFCPVFLHSQMLWYL [E23Y] | 2.38 |
| TVHEVDIFRCFCPVFLHSQMLWNL [E23N] | 3.34 |
| TVHEVDIFRCFCPVFLHSQMLWWL [E23W] | 2.4 |
| TVHEVDIFRCFCPVFLHSQMLWSL [E23S] | 2.37 |
| TVHEVDIFRCFCPVFLHSQMLWHL [E23H] | 3.28 |
